Laboratory results taken from article PMC8993412 (Journal of Molecular Biology, 2022).

How the values were obtained:
[1] = target: Nsp1 in SARS-CoV-2-infected VeroE6 cells (SARS-CoV-2 USA-WA1/2020, UniProt P0DTD1); assay: immunostaining of cells or tissue
[2] = target: SARS-CoV-2 Nsp1, full-length protein (recombinant) (SARS-CoV-2, reference, UniProt P0DTD1); assay: ELISA
[3] = target: SARS-CoV-2 Nsp12 (recombinant) (SARS-CoV-2, reference, UniProt P0DTD1); assay: western blot
[4] = target: Nsp12 in SARS-CoV-2-infected VeroE6 cells (SARS-CoV-2 USA-WA1/2020, UniProt P0DTD1); assay: immunostaining of cells or tissue

B1: IgG 15497 (anti-Nsp1) (antibody, V domains shown)
VH: EVQLVESGGGLVQPGGSLRLSCAASGFNFSSSSIHWVRQAPGKGLEWVASISSSYGYTYYADSVKGRFTISADTSKNTAYLQMNSLRAEDTAVYYCARWAAMDYWGQGTLVTVSS
VL: DIQMTQSPSSLSASVGDRVTITCRASQSVSSAVAWYQQKPGKAPKLLIYSASSLYSGVPSRFSGSRSGTDFTLTISSLQPEDFATYYCQQYYSLITFGQGTKVEIK
Question: Does B1 bind [1]?
Answer: Result: binds

B2: Fab 15497 (Fab-phage clone) (Fab, V domains shown)
VH: EVQLVESGGGLVQPGGSLRLSCAASGFNFSSSSIHWVRQAPGKGLEWVASISSSYGYTYYADSVKGRFTISADTSKNTAYLQMNSLRAEDTAVYYCARWAAMDYWGQGTLVTVSS
VL: DIQMTQSPSSLSASVGDRVTITCRASQSVSSAVAWYQQKPGKAPKLLIYSASSLYSGVPSRFSGSRSGTDFTLTISSLQPEDFATYYCQQYYSLITFGQGTKVEIK
Question: Does B2 bind [2]?
Answer: Result: binds

B3: IgG 15884 (anti-Nsp12) (antibody, V domains shown)
VH: EVQLVESGGGLVQPGGSLRLSCAASGFNIYYYSMHWVRQAPGKGLEWVASIYSYYGYTSYADSVKGRFTISADTSKNTAYLQMNSLRAEDTAVYYCARHPAYGGMDYWGQGTLVTVSS
VL: DIQMTQSPSSLSASVGDRVTITCRASQSVSSAVAWYQQKPGKAPKLLIYSASSLYSGVPSRFSGSRSGTDFTLTISSLQPEDFATYYCQQSHWHPITFGQGTKVEIK
Question: Does B3 bind [3]?
Answer: Result: binds

Question: Does B3 bind [4]?
Answer: Result: binds

B4: Fab 15498 (Fab-phage clone) (Fab, V domains shown)
VH: EVQLVESGGGLVQPGGSLRLSCAASGFNISSSSMHWVRQAPGKGLEWVAAVASFYGATYYADSVKGRFTISADTSKNTAYLQMNSLRAEDTAVYYCARAYHAGLDYWGQGTLVTVSS
VL: DIQMTQSPSSLSASVGDRVTITCRASQSVSSAVAWYQQKPGKAPKLLIYSASSLYSGVPSRFSGSRSGTDFTLTISSLQPEDFATYYCQQWYYYSAAVTFGQGTKVEIK
Question: Does B4 bind [2]?
Answer: Result: binds
